This note sets out measurements from patent US20140186365A1.

Assay [1] addresses Human Serum Albumin (human) (UniProt P02768). Kind of assay: BLI (Octet Red), HSA on sensor tips, VH domain in solution, 1:1 fit. (In BLI a coated tip is dipped into the sample, and binding shifts an interference pattern.)
Assay [2] addresses Mouse Serum Albumin (mouse) (UniProt P07724). Kind of assay: BLI (Octet Red), MSA on sensor tips, VH domain in solution, 1:1 fit.
Sequence of UniProt P07724 (P07724 25-608 limits assumed): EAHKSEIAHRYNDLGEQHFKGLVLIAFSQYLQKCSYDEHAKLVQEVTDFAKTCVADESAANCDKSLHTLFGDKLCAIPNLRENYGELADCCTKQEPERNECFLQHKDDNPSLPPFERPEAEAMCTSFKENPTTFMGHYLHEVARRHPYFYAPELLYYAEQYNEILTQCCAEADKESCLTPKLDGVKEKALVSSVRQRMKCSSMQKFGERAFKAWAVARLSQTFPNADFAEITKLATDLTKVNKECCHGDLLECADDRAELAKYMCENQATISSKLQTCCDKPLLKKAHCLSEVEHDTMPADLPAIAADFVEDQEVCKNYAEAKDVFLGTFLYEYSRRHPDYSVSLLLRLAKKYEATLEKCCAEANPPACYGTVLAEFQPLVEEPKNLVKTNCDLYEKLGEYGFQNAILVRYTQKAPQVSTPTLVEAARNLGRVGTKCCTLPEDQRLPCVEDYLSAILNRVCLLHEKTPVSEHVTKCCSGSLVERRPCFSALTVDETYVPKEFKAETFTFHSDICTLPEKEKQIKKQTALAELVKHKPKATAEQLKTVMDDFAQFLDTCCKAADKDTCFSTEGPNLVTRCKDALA

Sequence of UniProt P02768 (P02768 25-609 limits assumed): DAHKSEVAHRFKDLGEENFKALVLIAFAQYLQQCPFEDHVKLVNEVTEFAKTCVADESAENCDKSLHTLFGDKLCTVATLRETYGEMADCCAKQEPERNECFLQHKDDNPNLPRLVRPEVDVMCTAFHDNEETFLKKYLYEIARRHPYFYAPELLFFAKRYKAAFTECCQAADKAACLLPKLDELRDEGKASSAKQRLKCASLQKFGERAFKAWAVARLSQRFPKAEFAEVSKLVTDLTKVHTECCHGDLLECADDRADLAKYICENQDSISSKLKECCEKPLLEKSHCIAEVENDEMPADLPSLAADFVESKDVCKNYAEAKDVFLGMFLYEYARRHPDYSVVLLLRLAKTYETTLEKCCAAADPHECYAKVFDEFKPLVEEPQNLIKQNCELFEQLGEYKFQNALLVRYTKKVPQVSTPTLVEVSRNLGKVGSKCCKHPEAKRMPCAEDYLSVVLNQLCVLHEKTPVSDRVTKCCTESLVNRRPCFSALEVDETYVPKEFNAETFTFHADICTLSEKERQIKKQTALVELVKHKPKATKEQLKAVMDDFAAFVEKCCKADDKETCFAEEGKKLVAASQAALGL

B1: VH-3C2 (protein)
VH: QVQLQQSGPGLVKPSQTLSLTCAISGDSVSSKSAAWNWIRQSPSRGLEWLGRTYYRSKWYNDYVVSLRSRITVSPDTSKNQFSLQLNSVTPEDTAMYYCARTRGHIDLWGRGTLVTVSSSASGAGS
For orientation: Kd means the equilibrium constant for the complex coming apart. A low value points to tighter binding. Broadly, the koff is the first-order rate constant of dissociation. A high value points to a short-lived complex. A word on the kon: it is the second-order rate constant of association. Read a low kon as slower complex formation. In assay [1], B1 had a Kd of 23.8 nM, a koff of 0.000155 s⁻¹ and an on-rate (kon) of 6500 M⁻¹ s⁻¹. Further, in assay [2], the dissociation constant (Kd) is 31.8 nM, the dissociation rate constant (koff) was 0.000218 s⁻¹ and the kon came out at 6870 M⁻¹ s⁻¹.

B2: VH-3B11 (protein)
VH: EVQLVQSGAEVKKPGESLKISCKGSGYSFTSYWIGWVRQMPGKGLEWMGIVYPGDSDTRYSPSFQGQVTISAGKSISTAYLQWSSLKASDTAMYYCARPSMGATTWISAFDIWGQGTTVTVSSSASGAGS
In assay [1], B2 came in with a Kd of 18.1 nM, a koff of 0.000126 s⁻¹ and a kon of 6980 M⁻¹ s⁻¹. In assay [2], this molecule returned a dissociation constant (Kd) of 9.61 nM, a koff of 7.88e-05 s⁻¹ and a kon of 8200 M⁻¹ s⁻¹.

B3: VH-1C5 (protein)
VH: QVQLQQSGPGLVKPSQTLSLTCAISGDSVSSNSAAWNWIRQSPSRGLEWLGRTYYRSKWYNDYAVSVKSRITINPDTSKNQFSLQLNSVTPEDTAVYYCARTPSTGTLDCWGRGTLVTVSSSASGAGS
In assay [1], B3 gave an equilibrium dissociation constant (Kd) of 18.2 nM, a koff of 9.58e-05 s⁻¹ and an on-rate constant (kon) of 5260 M⁻¹ s⁻¹. For the same molecule, in assay [2], the Kd was 6.32 nM, the koff is 5.42e-05 s⁻¹ and the kon came to 8570 M⁻¹ s⁻¹.

B4: VH-4D6 (protein)
VH: EVQLVQSGAEVKKPGESLKISCKGSGYSFTSYWIGWVRQMPGKGLEWMGIIYPGDSDTRYSPSFQGQVTISADKSISTAYLQWSSLKASDTAMYYCARLDCSGGSCYYYYYGMDVWGQGTTVTVSSSASGAGS
With B4, in assay [1], the Kd was found to be 13.3 nM, the off-rate constant (koff) was 0.000141 s⁻¹ and the on-rate (kon) is 10600 M⁻¹ s⁻¹. In assay [2], the Kd came out at 12.6 nM, the dissociation rate constant (koff) is 0.000105 s⁻¹ and the association rate constant (kon) was found to be 8340 M⁻¹ s⁻¹.

B5: VH-3E11 (protein)
VH: QVQLQQSGPGLVKPSQTLSLTCAISGDSVSGNSAAWNWIRQSPSRGLEWLGRTYYRSKWYIGYAASLQSRLAINADTSKNQLSLRLSSVTPEDTAVYYCVGRHYSGHSGAFDTWGHGTMVTVSSSASGAGS
B5: in assay [1], the Kd was found to be 23.6 nM, the off-rate (koff) was determined as 0.000133 s⁻¹ and the on-rate (kon) was found to be 5630 M⁻¹ s⁻¹. In addition, in assay [2], the Kd is 39.3 nM, the koff stood at 0.000226 s⁻¹ and the on-rate (kon) amounted to 5750 M⁻¹ s⁻¹.
